Results taken from patent US20180296694A1 (IMMUNOGEN, published 2018).

B1: Mov19v1.6-GMBS-dAlalAla-PAB-DM1 (conjugate 4b) (antibody, human IgG1, kappa, V domains shown)
VH: QVQLVQSGAEVVKPGASVKISCKASGYTFTGYFMNWVKQSPGQSLEWIGRIHPYDGDTFYNQKFQGKATLTVDKSSNTAHMELLSLTSEDFAVYYCTRYDGSRAMDYWGQGTTVTVSS
VL: DIVLTQSPLSLAVSLGQPAIISCKASQSVSFAGTSLMHWYHQKPGQQPRLLIYRASNLEAGVPDRFSGSGSKTDFTLTISPVEAEDAATYYCQQSREYPYTFGGGTKLEIKR
modifications: D-Ala-L-Ala-PAB-DM1 linked through GMBS, about 3.5 DM/Ab
B2: conjugate 17h (antibody, human IgG1, kappa, V domains shown)
VH: B1 VH
VL: B1 VL
modifications: thio-peptide-maytansinoid 14h linked through sulfo-GMBS to antibody amines (Example 4)
B3: conjugate 17g (antibody, human IgG1, kappa, V domains shown)
VH: B1 VH
VL: B1 VL
modifications: thio-peptide-maytansinoid 14g linked through sulfo-GMBS to antibody amines (Example 4)
B4: conjugate 17i (antibody, human IgG1, kappa, V domains shown)
VH: B1 VH
VL: B1 VL
modifications: thio-peptide-maytansinoid 14i linked through sulfo-GMBS to antibody amines (Example 4)
B5: M9346A-sGMBS-LDL-DM (conjugate 17c) (antibody, human IgG1, kappa, V domains shown)
VH: B1 VH
VL: B1 VL
modifications: maytansinoid LDL-DM (compound 14c, L-Ala-D-Ala-L-Ala) linked through sulfo-GMBS to antibody amines, 3.7 mol LDL-DM/mol antibody

Each binder was assayed against folate receptor alpha (FRα) on cells (human, UniProt P15328 25-234) (assay: cell-based or functional assay).
Chain of folate receptor alpha (FRα) on cells (P15328 25-234): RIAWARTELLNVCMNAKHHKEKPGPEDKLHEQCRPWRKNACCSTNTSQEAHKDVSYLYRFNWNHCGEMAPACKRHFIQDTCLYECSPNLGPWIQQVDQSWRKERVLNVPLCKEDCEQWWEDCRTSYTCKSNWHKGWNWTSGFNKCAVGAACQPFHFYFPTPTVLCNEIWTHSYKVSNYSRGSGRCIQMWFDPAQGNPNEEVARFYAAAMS

Point of comparison: B1, “IC50, in vitro cytotoxicity (WST-8, 5 days), Igrov-1 cells, +Block” value 20 nM. Against it:
- B2 — higher, > 50 nM
- B3 — higher, > 50 nM
- B4 — higher, > 50 nM
- B5 — higher, > 50 nM

Point of comparison: B2, “IC50, in vitro cytotoxicity (WST-8, 5 days), Igrov-1 cells, ADC” value 30 nM. Against it:
- B1 — 100-fold lower, 0.3 nM
- B3 — 10-fold lower, 3 nM
- B4 — 1.7-fold higher, 50 nM
- B5 — 4.3-fold lower, 7 nM

Point of comparison: B1, “IC50, in vitro cytotoxicity (WST-8, 5 days), Jeg-3 cells, +Block” value 10 nM. Against it:
- B2 — higher, > 50 nM
- B3 — higher, > 50 nM
- B4 — higher, > 50 nM
- B5 — higher, > 50 nM

Point of comparison: B5, “IC50, in vitro cytotoxicity (WST-8, 5 days), Jeg-3 cells, ADC” value 0.6 nM. Against it:
- B1 — 3-fold lower, 0.2 nM
- B2 — within 1.5-fold, 0.5 nM
- B3 — within 1.5-fold, 0.5 nM
- B4 — within 1.5-fold, 0.7 nM

B1 and B2 cannot be ordered by “IC50, in vitro cytotoxicity (WST-8, 5 days), KB cells, +Block” value (“IC50 … KB cells, +Block” for short): greater than 50 nM for the first, greater than 50 nM for the second.

B3 and B4 cannot be ordered by “IC50 … KB cells, +Block” value: greater than 50 nM for the first, greater than 50 nM for the second.

For B5, the “IC50 … KB cells, +Block” value was greater than 50 nM.

Point of comparison: B2, “IC50, in vitro cytotoxicity (WST-8, 5 days), KB cells, ADC” value 0.4 nM. Against it:
- B1 — 2-fold lower, 0.2 nM
- B3 — within 1.5-fold, 0.3 nM
- B4 — within 1.5-fold, 0.3 nM
- B5 — within 1.5-fold, 0.3 nM

Point of comparison: B1, “IC50, in vitro cytotoxicity (WST-8, 5 days), SKOV-6 cells, +Block” value 10 nM. Against it:
- B2 — higher, > 50 nM
- B3 — higher, > 50 nM
- B4 — higher, > 50 nM
- B5 — higher, > 50 nM

Point of comparison: B1, “IC50, in vitro cytotoxicity (WST-8, 5 days), SKOV-6 cells, ADC” value 0.9 nM. Against it:
- B2 — higher, > 10 nM
- B3 — higher, > 10 nM
- B4 — higher, > 10 nM
- B5 — higher, > 10 nM
